These results are taken from US20240150494A1 (ROCKEFELLER UNIVERSITY, published 2024).

In assay [1] the target is T1, anti-NP (4-hydroxy-3-nitrophenylacetyl) antibody clone 3B62 IgG1, afucosylated.
T1 construct: In the FcγRIIIA ELISA it stood as an immune complex with NP-BSA (10:1); also called 3B62 IgG1 G2; monomeric 3B62
Kind of assay: SPR, 1:1 Langmuir global kinetic fit, 256 to 16 nM in 2-fold steps. Background: In SPR one partner is held on a chip, and binding of the other changes the refractive index at the surface.

The target of assay [2] is T2, IgG1, G0 afucosylated glycoform (antibody not named).
T2 construct: also called GO
Kind of assay: sandwich ELISA, IgG titrated.

B1: B7 (VHH)
VHH: QVQLQESGGGLVQAGGSLRLSCAASGGISRYKTMGWYRQAPGKEREFVAGITWGGSTYYADSVKGRFTISRDNAKNTVYLQMNSLKPEDTAVYYCSVDGGTYADPYHYYWGQGTQVTVSS
notes: also called clone B7; nanobody B7; not shown: His tag and AviTag of the pET26-b(+) construct
In the case of B1, the equilibrium dissociation constant (Kd) in assay [1] is 3.76 µM. In addition, in assay [2], the “EC50 (read off the curve)” value was approximately 0.4 µg/mL.

The term Kd denotes a measure of binding affinity in units of concentration. One may read the EC50 (read off the curve) as the midpoint of the concentration-response curve. A lower EC50 (read off the curve) goes with higher potency in that assay.
